Results published in the NTF2 design screens of Basanta et al. (2020).

Test: protease stability score; higher = more stable; yeast display proteolysis, trypsin and chymotrypsin;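 note: relative to predicted unfolded state with 0 unfolded-like and 1 meaning tenfold more protease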

Row | Sequence | protease stability score
1 | DEWEKDARDFTRILLEIFKTGDEKSITELLDPNARVEYGDKEMHGMHLMSRILLKDAKEIRVDHMRLRSIDVYNGVLHVNMEVDGTIDGRRDTYRLHVHTHKFDGRWRVENLIIR | 1.06
2 | DEWEKLYEIALEIFLEVFKTGNEEMFLKQADPHVRLDVGDKHYHGREHVVKFLIDELKRVKNLKVSSEHESFVGDYAHMHIDLDIDGRRVDVEIVSLKVDGKWVLREVRLH | 1.34
3 | DEWERLTEVMIRIFEEIVHTGDERVWEEMADPHVKVHIDGVHFHGREDLLYLLRKMGANVFDLKRSDIQGEKVYLDIQTEFNGQKRDSRFLIVKFNGRWLLESISIH | 1.47
4 | DEWHELANEIMQLLIELWLTGDEEIVLKLADPNVKVKIIVNGRTYSNHGREMFHDWHRRVDYIHEIRIKDVTFVNGVVISDTHVDGTINGVRMRTDTKMIVVVVNGKLKSAEYRVE | 1.11
5 | DEWHEYNEKLFELWEKANKTGDERLLRLLIDPHARLHFNGKHFHGREEVARLMTELRVDRFEIKRMEIQGEKLTVEGREDVTQGDFRFESNVNIIFLKINGRWSLERQHSE | 0.944
6 | DEWKEDSRRAIELELRHLQTGDEDLTEKYADPHARVHIGDKEFHGRDHYIETLRRMGIKHVEVREIREQGDFLKMDVHVNVDGRELTVHFVMRKVNGRWRIHMIEVR | 1.11
7 | DEWKRLALEVLRLWEEFMSTGDEKSVEELADPNVRILYDGVQLHGMDEVRRHLKELREHSHHVEIRRATVIDGRVHVDGTLDVTIEIGDKKIREEIRVKIHIIKVNGKWFVHSVEFR | 1.49
8 | DEWLEIAHRFVEELVRSLLTGDEDTLTKLIDPNVRLNINGQEVVGMTEVNRAWHELRIEDEHIRRIDVQGDYVRIHSQRRGEVNGVHTEFEVVIIISKFDGRWVIKSEHVH | 1.24
9 | DEWLEMAMRIIFRYLLLLATGDEDIVNHYMDPNVKIDVNGREEHGRERALEQLEEIRRQYPGLTLTHLHIEDLKVVGNYVRVDGYVEGRIDGRRIELKTEFIILKINGRWRMHSVKEH | 1.74
10 | DEWREHMEKLADDFSHAMLTGNEESMDKFLDPHTRSIVNGVERHGREAFRIWINQIDHIRDVEFRHVDTQGNKIRSHTRFHGEVNGRRYIVEIEVILHVIDGRVKSVEIRNL | 1.38
11 | DEWTEDVREALHLIKHSIETGDPRLIEELADPNVRVLYGNKVYHGREKLSDLVTEWRTTHVDFHHVRVIGDKIDIDVIIRSEYNGRVVDLKEKIVATKINGKWILHSRNIH | 0.531
12 | DEWTHVLHEMLKLLLDAWDTGDEKVLHRMMDPNAKSEINGREFVGMHHISTWLKRERDRLGVEIHIHVRRINFQGDKLEVDSHFNVIIGDKEFHRSTRIELIIVNGRVHSLHIKID | 0.212
13 | DEYDHIAKLMVKLWLEWYLTGDEDYFNHYADPEVRSEVGDKRFHGRELFMRYIWEHHRERGVEIEIIVRRVEVQGEKAEVDGELIVRQGDKEHRLRVHIELKVVNGVLKKIRIEFR | 0.561
14 | DEYEREYKKFIDDMLHAWLTGDEDTLQELVDPNARLHFNGQELHGRDIWLRNYREHGMKVKSYHIEHREIQGEKIIIRGRLNGHVNGRNSNMDIILIIEKVDGRWVMQDIRIS | 1.98
15 | DEYERIWRDLVKLILHAHKTGDEDHLKRLMDPNAKIHVGEFEMIGRTDEELWKRLLGIERFHIHRIDIRTISIFDGRLHIEVDSDGQINGKRVEHHIEITLVIIDGKLHSVSHTLK | 1.1
16 | DEYKRDADEVIRLWAEAMETGDEKLFLELFDPDTRSIFNGVELHGRQDIEMWRNRYDHVRHVRTEVEDSHIYNGRVEDHVRLILDVEVNGQREHHSHEILVYSVKFDGRWHFTMVEIR | 0.607
17 | DEYREEARKLMHDTAKHLHTGDEDMTNHYLDPNVKIQINGQEIHGMDKFEHDSRRFKGAKNDVRFELRLIQVIGDKVRIDGELYVRIRVGDKEYSFEVKVDIVVTKVDGVWKIKEIKIE | 0.806
18 | DEYWHHMKKSFEDLHDARHTGDERFVMEMLDPNVRFDINGVEFIGREDWRRHLQELGVDHEEIILHDYHIFNGRVELDVRTVHHIGDYELRRDEHMDLRKVNGRWHIKEIRVR | 0.209
19 | DHDDEESKHWLEFYLEIVQTGDEDSHKRLADPNTRLHIDGQVMHGREFMTMWFRHLVSKFKNARVEIRLRDTRKINGRVELDVELIFRVGDKEERREVQIFADKVDGRWHIKEFVVH | 2.22
20 | DHDDEMLEHFMNLWLHAVATGDEELLSNLLDPNVREIINGKTIHGREEFLKLYHELARRIDHIHIRVRWYDMQGEFLISKTEIEFRFNGVNLKFETKMIVLKINGKWILHSIRFE | 1.26
21 | DHDDERVEHFARHWVHNFLTGDWKKLTDQVDPHVRLDVNGQKFHGREAIREWLEHILREIRVHDLKFDHIHLQGDYTIIEGTQIIHYNGRTEIRKTRIEFIIVDGKFQEIRIKTL | 1.43
22 | DHDDHMREHLIELFIRWTTTGDFDELLRLVDPNARFDVNGREIHGWDVFMKMYEDTRHLLGADHAEVRNKDERFQGDKVTITIEVTIEVGDKEHREERELYVRKVDGKWTMKSLKIR | 0.703
23 | DHDEHDADRAVKWFLEDLRTGDEQLNERQADPHVRNDFNGVEIHGREEFLKHLSKLSNELGIKHLHVRHHRVYDGRLELHIELRFDGKTITLIIIKLKVNGRWYVESMHVH | 0.128
24 | DHDEKRVREILELFLNAITTGDEETLRHLLDPNVKTDINGVELHGWKDILHHLMEMRIHVRHYETRHLNKIGEYLHLEVHVYGEHHFDGRTREDTYYVNVIILKVNGRWHLHQFSVH | 1.39
25 | DHDEKVSKEVLHEFLHVLRTGNWDHLIKNIDPNARLEVDGVDIHGRENVHKFLDEFHKRMGVDHHELHDEKMTIIDGVLQIDLDTTTEFNGRRFKTTIHLFVLKINGRWTFKTLIIKHE | 2.03

Row | Sequence | protease stability score
26 | DHDEKWAREVIRLLIEDIVTGDEESLSKLFDPHVRIEIGDKEHIGMEIALKLMIELWERLGVKHIHFHMSDIRVYDGRLDVDSRLHHVVNGRKHETKVRIFIRKINGRWVIESLVIH | 2.25
27 | DHDEREYHHFVQILIHSMRTGDWVKLEELMDPHVLIRIGDKELHGREELYRFMLQARIELEVKDYRLYGDKVELDTLLSMLIGDKLSETDSRMKLEKVDGKWIIREIFVDPETKKRLLD | 1.64
28 | DHDKEYADRSIELWLKSHETGDEELVMRLADPHARVYVGEYEDHGREMVMIMLRVLGVDHYSVRSWHVQGDKVSITGELQVGDKKFRSHLTVRKVNGRWLLSEVRIG | 1.16
29 | DHDTRRHEKILSDYAHALHTGNFHMLKELMDPHVRLEIGDKEFVGREEVMRYLQHIRSYIHRLRIDHIEIQGDKIHSDVREHLHFEIGDKDHNHDTRVEQLWLKVNGRWLLQQIVVR | 2.16
30 | DHEDDEFDFAIELWVTIMKTGDEEFLERYVDPHARLIVGDKRFHGREVIEFMLRRIDVLDRIEVEHRQSVNGRMIIHQHLHHAIDGRRNEVRMRVVVHKVDGRWDLDELQFD | 1.36
31 | DHEDEHSEEMEQLIFTWLQTGDWEAFMKFLDPRVILHIGDKTVIGREKFIEFIEQFKNIRMKIHDVQVQGNKIHIDVRTDIDGREYREHIHIHIVNGRIRHIEVRHH | 1.92
32 | DHEDELKMHLFEHLLEVLMTGDEHRKTRLLDPDARSHLDINGQKIDVMGWEEVTKLDRKLHEEIRFHEIHIREWELQGDKIFVVGETRIEINGVEFRTEVRIIVVVVNGRLKALFFHVH | 0.271
33 | DHEDELMERLARLFVHALQTGDEDLLRRYADPNTLINVNGKNLHGMEEESRFWKEIRIEHTEVERIHVQGNKSTVFVRVFFRIGDKHVHEHRILRLEFVDGRLRSVELERH | 1.69
34 | DHEDERETWAYHMLIHAFRTGDERIHEELLDPNVRTDVDGRTSHGWENVVKLVHHVLRLLGIDHIRLRRSDVVDGRVYMQGDIRVNGRTIETRVTIQVINGRVHSWSVRAE | 1.6
35 | DHEDERSRELTQILWKAWLTGDEELFHRLHDPDVRTEFDGREYHGWERFSELLNQFKNVRIRLRDYRIQGEKSKLDTQINIGDKRTRFHIEIYIIDGRLKNMRFEIE | 0.868
36 | DHEDHLSELAEHLIHHHWLTGDEHLLERMADPHAQIIIGDKHLHGREEVSRWLIEFMHKFKNMRLQIDHRHLIDGRLHVEVTINIGDKRLKVHRHSIKINGQWHLKSIIIE | 1.09
37 | DHEDKLHEEAFRRWLHVFKTGNEDLIRRLVDPHVKLEVDGQDFHGREELLRFLIERIRNLGIKVSDVKVKHVDIQGDKLDIDVRFIVEFNGRRTEINEWLIMEKIDGRWVVQSIHIR | 1.3
38 | DHEDRLAEEIARFIYHYWETGDEEEISDLFDPHVRVEININGKRIEKVGREHFYHWFHYWRERFKNLKINFKRLDPVNGKVHVETRVHQGDKERRMILEFDVVNGRIRVFRMEVHEN | 2.5
39 | DHEEDLSHEFLERLVSAWRTGDEHTWNRLADPNYKLEINGRHSVGREDSLRVIKDIRDKYKGLTIDDVTIKDVRIFDGVIRAKMVLQLNFNGVNIEEEVDIVIEKVDGRWFLKFEIVK | 0.653
40 | DHEEEEAERMARKIIHVLHTGDFDSWSHLADPNVRIEVGDKELHGREDLRKLFHLWDERFKNATIMVKDMRVQGNKVHLDHRLNIDGRTIHTTSEIIVINGRIHTVIIDEK | 2.29
41 | DHEEEEEHFLLEHMIEAIVTGDEDRLKELVDPHVRMDIDGVIIHGMDDIARWLKELRSIIRHFIPRDRKWQGNKIHIEGEVHGELRFDGRNQTDTFRIEIVSHKINGRWVIRSESFR | 1.18
42 | DHEEEEMRDRFKVLMRALLTGDFEELIRQMDPDYRLDINGRELIGREEYRKHLEKQLKHWRWKRIDVKHVETQGDKLHARINVHGDIDGRDINTETDWHLEVIDGRVRSEKISIR | 1.58
43 | DHEEEHALRIMQLLLWLDFTGDEETIHHLMDPHVRSVWIVGDKTITRHGRENVLKLFRDLGFKHVKDFRIRDVSAFDGRVDLKGRIDGQYGDKRETWDMDVELNVVDGRLKFFIIRFK | 1.69
44 | DHEEEHARSIIELLLYAFTTGNEKLLRRLIDPDAKVDIDGKSLHGMEDVSRHLREMIDHWRFRHIDVRRLEVQGEWIHITGRWDGDQGDKKVERDVEVRVLVVDGRVKHRSIHFR | 1.34
45 | DHEEEIALEVAEKILKLWLTGDEEIMMELFDPNTRVEINGKKVHGRENVMHILHHEWREIRLKDLRIKRHESVGNKVHLDGRVNGQINGRKHSIHVRIDIEVVDGRITNISIEHS | 1.44
46 | DHEEEIAQKAFTDWHHALLTGDWERHEEMFDPDVREDINGVDLHGRELIVKQVRRDLQDFGIKHFEIRIRRLSFQGNKVIFDGIIIFHVDGREERFHVRVLFRKINGVWYLHSRFLH | 1.06
47 | DHEEEKAVEIARLLLEAELTGDWKTFSHLADPHTRWIERIDGREDSRHGMEEVVRIIIERLKEIRMEVRIRRKRVVGDKVELDGELIMRINGVEIRVEVRIIIIIVGDKVKFIEITIH | 0.83
48 | DHEEEKLKESLDRLEDINRTGDWHKIHDMLDPHVRVLVNGRKHHGRETATHIYREWRITDIQFKDIRLIGDKVHIHMESRVSVNGREHSVKSELILIKVDGQWYMHAEQFL | 1.05
49 | DHEEELAKSMLEIWREVVWTGDEDSLQKLLDPDARYHLVVDGKRVERIGMEHIRKELHRLFREWRIEDMHIHEIRVVDGVAHTRTRLVVNIDGRIVDTETVINVVSFDGRVRSVTVDIR | 1.25
50 | DHEEEQVRLAFEIFKTLQETGDEELLHHFFDPNARSDVDGREVVGRHAVEEWQRDLGVDHIHVHKFTFIDGRVEMHFTYTQGDKVIKVHIYVHKVDGKWDMHRIHVR | 1.24
